Reference: PMC2897846

Target: CD40 on human B cells (human (endogenous in B cells from PBMC)) (UniProt P25942)
Chain of UniProt P25942 (P25942 21-277): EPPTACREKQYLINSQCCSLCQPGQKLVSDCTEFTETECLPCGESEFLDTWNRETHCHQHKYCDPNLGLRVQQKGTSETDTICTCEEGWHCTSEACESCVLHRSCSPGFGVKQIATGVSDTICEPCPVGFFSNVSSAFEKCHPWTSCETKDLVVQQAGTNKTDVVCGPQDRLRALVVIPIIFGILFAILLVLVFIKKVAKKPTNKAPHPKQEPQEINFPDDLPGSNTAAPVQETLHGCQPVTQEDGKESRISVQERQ

## CD40 ligand (CD40L, CD154) incorporated into HIV virions (from UniProt P29965 1-261)
  intracellular AID protein (flow cytometry) in CD19+ B cells exposed to CD40L+ HIV NL4-3 for three days (% of CD19+ cells): 2.11
